{
  "source": "patent US20220348894",
  "about": "“DNA MODIFYING ENZYMES AND ACTIVE FRAGMENTS AND VARIANTS THEREOF AND METHODS OF USE” (LifeEDIT Therapeutics, Inc., published 2022)",
  "test_in_all_cases": "cell_activity; A16>G editing, HEK293FT",
  "details_in_all_cases": "tags: SV40 NLS, 3xFLAG, nucleoplasmin NLS",
  "key": {"APG06333-nAPG07433.1": {"target": "APG06333-nAPG07433.1 (synthetic)", "sequence (chain, as listed by the source)": "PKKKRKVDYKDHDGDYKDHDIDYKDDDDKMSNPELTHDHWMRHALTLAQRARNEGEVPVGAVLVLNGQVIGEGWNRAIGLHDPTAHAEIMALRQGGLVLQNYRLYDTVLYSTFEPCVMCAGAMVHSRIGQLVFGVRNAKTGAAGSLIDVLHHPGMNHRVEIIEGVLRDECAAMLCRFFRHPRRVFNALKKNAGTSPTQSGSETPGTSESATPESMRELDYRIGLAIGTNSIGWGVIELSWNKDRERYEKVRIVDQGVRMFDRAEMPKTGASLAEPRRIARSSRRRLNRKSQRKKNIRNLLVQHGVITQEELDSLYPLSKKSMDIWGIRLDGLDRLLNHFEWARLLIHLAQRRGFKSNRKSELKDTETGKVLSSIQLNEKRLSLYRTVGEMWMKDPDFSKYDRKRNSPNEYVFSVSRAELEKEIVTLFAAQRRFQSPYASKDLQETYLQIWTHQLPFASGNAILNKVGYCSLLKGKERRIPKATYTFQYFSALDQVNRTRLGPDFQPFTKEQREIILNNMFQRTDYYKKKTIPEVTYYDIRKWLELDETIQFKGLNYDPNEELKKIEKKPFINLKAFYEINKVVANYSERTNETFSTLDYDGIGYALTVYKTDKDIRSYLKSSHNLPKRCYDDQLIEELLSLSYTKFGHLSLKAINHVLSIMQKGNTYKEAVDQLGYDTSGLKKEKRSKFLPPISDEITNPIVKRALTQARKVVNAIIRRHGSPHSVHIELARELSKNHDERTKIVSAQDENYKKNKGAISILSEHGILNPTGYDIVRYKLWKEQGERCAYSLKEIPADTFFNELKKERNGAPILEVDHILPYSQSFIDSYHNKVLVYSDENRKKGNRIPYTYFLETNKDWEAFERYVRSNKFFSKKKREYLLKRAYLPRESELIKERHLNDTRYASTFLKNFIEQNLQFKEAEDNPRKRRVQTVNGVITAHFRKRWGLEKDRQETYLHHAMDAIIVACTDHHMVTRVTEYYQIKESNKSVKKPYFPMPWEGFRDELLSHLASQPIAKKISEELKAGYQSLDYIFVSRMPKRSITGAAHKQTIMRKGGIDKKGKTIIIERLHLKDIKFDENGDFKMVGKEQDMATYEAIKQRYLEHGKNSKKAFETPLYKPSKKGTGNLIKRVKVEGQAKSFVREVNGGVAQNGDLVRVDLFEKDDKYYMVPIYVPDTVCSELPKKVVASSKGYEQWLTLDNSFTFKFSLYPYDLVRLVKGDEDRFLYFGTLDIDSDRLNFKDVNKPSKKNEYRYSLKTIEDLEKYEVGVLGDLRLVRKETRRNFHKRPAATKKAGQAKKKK", "method": "(§1) 500 ng of plasmid comprising an expression cassette comprising a coding sequence for a fusion protein for each deaminase described in Table 1 and 500 ng of plasmid comprising an expression cassette encoding an sgRNA shown in Table 2 were co-transfected into HEK293FT cells at 75-90% confluency in 24-well plates using Lipofectamine 2000 reagent (Life Technologies). Cells were then incubated at 37° C. for 72 h. Following incubation, genomic DNA was then extracted using NucleoSpin 96 Tissue (Macherey-Nagel) following the manufacturer's protocol. The genomic region flanking the targeted genomic site was PCR amplified using the primers in Table 2 and products were purified using ZR-96 DNA Clean and Concentrator (Zymo Research) following the manufacturer's protocol. The purified PCR products underwent Next Generation Sequencing on Illumina MiSeq. Typically, 100,000 of 250 bp paired-end reads (2×100,000 reads) are generated per amplicon. The reads were analyzed using CRISPResso (Pinello, et al. 2016 Nature Biotech, 34:695-697) to calculate the rates of editing. Output alignments were analyzed for INDEL formation or introduction of specific adenine mutations. Tables 3 through 7 show adenine base editing for each fusion protein comprising nAPG07433.1 and a deaminase from Table 1 and a guide RNA from Table 2. The deaminase component of each fusion protein is indicated. The editing rate for adenines within or proximal to the target sequence is indicated. “A5” indicates, for example, an adenine at position 5 of the target sequence. The position of each nucleotide in the target sequence was determined by numbering the first nucleotide in the target sequence closest to the PAM as position 1, and the position number increases in the […] away from the PAM sequence. The tables also show which nucleotide the adenine was changed to, and at what rate."}, "APG05174-nAPG07433.1": {"target": "APG05174-nAPG07433.1 (synthetic)", "method": "as §1"}, "APG09949-nAPG07433.1": {"target": "APG09949-nAPG07433.1 (synthetic)", "sequence (chain, as listed by the source)": "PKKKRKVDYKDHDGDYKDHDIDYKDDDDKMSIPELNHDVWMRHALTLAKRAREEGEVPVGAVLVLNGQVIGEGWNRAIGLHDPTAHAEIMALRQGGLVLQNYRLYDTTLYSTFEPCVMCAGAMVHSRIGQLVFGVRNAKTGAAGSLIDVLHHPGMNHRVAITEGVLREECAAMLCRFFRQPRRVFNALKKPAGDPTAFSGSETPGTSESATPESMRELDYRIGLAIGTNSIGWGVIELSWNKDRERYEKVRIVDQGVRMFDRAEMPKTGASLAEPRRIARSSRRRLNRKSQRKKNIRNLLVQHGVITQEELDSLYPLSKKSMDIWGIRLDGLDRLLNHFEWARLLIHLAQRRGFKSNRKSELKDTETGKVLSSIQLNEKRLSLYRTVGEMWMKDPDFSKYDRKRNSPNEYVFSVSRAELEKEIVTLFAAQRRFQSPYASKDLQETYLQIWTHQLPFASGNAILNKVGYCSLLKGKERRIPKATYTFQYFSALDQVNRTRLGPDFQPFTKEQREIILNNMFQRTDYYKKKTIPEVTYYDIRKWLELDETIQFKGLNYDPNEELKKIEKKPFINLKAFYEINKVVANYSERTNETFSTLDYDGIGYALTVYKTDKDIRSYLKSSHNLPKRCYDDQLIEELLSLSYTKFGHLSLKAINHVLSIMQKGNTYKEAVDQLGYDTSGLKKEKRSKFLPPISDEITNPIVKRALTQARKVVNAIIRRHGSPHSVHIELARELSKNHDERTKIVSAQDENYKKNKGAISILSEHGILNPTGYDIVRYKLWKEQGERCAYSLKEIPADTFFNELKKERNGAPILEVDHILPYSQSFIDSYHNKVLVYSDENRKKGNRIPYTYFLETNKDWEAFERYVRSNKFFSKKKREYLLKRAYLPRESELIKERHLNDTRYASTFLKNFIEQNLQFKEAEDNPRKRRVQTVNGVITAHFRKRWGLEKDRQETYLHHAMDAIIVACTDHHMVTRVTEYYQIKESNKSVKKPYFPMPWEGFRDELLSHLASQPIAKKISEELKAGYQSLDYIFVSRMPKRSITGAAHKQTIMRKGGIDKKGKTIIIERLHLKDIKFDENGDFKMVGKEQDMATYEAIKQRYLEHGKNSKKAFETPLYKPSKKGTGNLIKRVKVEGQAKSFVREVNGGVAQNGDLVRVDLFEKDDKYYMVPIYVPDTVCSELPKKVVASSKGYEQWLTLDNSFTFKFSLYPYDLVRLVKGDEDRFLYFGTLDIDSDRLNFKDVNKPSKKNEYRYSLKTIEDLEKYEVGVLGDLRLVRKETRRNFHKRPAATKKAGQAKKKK", "method": "as §1"}, "APG09102-nAPG07433.1": {"target": "APG09102-nAPG07433.1 (synthetic)", "method": "as §1"}, "APG03724-nAPG07433.1": {"target": "APG03724-nAPG07433.1 (synthetic)", "method": "as §1"}, "APG05723-nAPG07433.1": {"target": "APG05723-nAPG07433.1 (synthetic)", "method": "as §1"}, "APG08196-nAPG07433.1": {"target": "APG08196-nAPG07433.1 (synthetic)", "method": "as §1"}, "APG08449-nAPG07433.1": {"target": "APG08449-nAPG07433.1 (synthetic)", "sequence (chain, as listed by the source)": "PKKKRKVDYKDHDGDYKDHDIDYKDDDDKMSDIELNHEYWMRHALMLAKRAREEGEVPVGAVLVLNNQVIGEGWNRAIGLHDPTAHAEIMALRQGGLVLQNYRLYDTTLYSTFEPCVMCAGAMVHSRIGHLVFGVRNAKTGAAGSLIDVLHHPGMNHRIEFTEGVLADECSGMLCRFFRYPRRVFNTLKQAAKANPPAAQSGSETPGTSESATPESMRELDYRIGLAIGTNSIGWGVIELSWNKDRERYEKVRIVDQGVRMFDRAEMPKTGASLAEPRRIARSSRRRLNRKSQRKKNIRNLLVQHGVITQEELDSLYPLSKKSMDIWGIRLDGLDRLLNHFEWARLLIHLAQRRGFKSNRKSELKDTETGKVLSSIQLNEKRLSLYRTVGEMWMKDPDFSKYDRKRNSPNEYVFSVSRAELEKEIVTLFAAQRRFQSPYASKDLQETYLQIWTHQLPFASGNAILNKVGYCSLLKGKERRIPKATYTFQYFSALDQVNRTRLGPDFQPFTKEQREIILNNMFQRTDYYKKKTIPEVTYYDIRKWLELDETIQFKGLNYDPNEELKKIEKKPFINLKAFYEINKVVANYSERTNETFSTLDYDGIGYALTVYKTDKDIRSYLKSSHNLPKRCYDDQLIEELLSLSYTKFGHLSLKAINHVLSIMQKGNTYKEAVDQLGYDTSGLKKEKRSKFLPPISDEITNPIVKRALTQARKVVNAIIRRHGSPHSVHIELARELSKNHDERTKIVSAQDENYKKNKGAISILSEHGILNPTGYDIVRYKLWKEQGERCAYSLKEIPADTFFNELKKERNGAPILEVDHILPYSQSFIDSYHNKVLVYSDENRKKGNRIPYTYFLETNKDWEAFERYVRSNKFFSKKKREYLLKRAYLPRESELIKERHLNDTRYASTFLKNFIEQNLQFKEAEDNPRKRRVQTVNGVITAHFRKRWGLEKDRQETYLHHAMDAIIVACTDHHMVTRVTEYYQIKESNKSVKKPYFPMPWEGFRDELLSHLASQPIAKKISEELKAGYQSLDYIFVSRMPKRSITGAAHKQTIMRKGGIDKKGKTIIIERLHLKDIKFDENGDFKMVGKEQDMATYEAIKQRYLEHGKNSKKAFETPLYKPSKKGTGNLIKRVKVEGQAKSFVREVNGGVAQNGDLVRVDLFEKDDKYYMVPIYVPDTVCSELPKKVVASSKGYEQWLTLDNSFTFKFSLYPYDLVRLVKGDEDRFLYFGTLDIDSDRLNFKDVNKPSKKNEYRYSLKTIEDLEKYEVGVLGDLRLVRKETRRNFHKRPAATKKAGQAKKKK", "method": "as §1"}, "APG06489-nAPG07433.1": {"target": "APG06489-nAPG07433.1 (synthetic)", "method": "as §1"}},
  "data": [
    {"binder": "SGN000186 sgRNA (Table 2) ; SGN000186 target (Table 2) (ssRNA ; dsDNA) RNA: GGACAGUGCGCAUCUCCCUGGUCAUAGUUCCAUUAAAGCCAAAAGUGGCUUUGAUGUUUCUAUGAUAAGGGUUUCGACCCGUGGCGUCGGGGAUCGCCUGCCCAUUGAAAUGGGCUUCUCCCCAUUUAUU DNA 1: GGACAGTGCGCATCTCCCTG DNA 2: CAGGGAGATGCGCACTGTCC", "values": [
      {"measurement": "activity", "setting": "APG06333-nAPG07433.1", "result": 4.2, "unit": "%"},
      {"measurement": "activity", "setting": "APG05174-nAPG07433.1", "result": 3.2, "unit": "%"},
      {"measurement": "activity", "setting": "APG09949-nAPG07433.1", "result": 3.4, "unit": "%"},
      {"measurement": "activity", "setting": "APG09102-nAPG07433.1", "result": 6.2, "unit": "%"},
      {"measurement": "activity", "setting": "APG03724-nAPG07433.1", "result": 4.1, "unit": "%"},
      {"measurement": "activity", "setting": "APG05723-nAPG07433.1", "result": 1.9, "unit": "%"},
      {"measurement": "activity", "setting": "APG08196-nAPG07433.1", "result": 3.3, "unit": "%"},
      {"measurement": "activity", "setting": "APG08449-nAPG07433.1", "result": 5.3, "unit": "%"},
      {"measurement": "activity", "setting": "APG06489-nAPG07433.1", "result": 2.5, "unit": "%"}
    ]}
  ]
}
